Results on 21 sequences are retold here after a protein production outcome set (Wang et al. 2014).

The nature of the data set: label from the status in PepcDB records.
As for “MTPQIATILGLVIMFIVATALPINMGAVAFALAFIIGGVWVGLEGKEVLAGFPGDLFLTLVGITYLFAIAQKNGTIDLLVHWAVRAVRGRIVAIPWVMFVITGLLTAFGALGPAAVAIIGPVALRFAKQYRINPLMMGLLVIHGAQGGGFSPISVYGGITNKVVEKAGLDVSEMAVFLTSLGFNLMMAIICFCAFGGLKLMRRQELSLADAQYVAVAGDQASHRGFAIEGHGALVAPGGGTLSTDPLALEAVSITRDRVITLIGLLGLGVAALIYNLNVGLVSITVAVALALISPNAQKGAVDGISWSTVLLISGVVTYIAVLEKSGAVDYIGTGVSHIGMPLLGALLVCYVGGIVSAFASSAAVLGATIPLAVPFLMQGQLGAAGVICALAVSSTIVDVSPFSTNGALVVASAAKEERDGLFRRFLIYSGLVVLLGPLAAWLVFVVPGWL”, the protein production entry is “failed”.

Consider “MSKSTKVDLVFLFFTAIWGLSFPLTKNVLGYTSIFAFLSLRFTSAAVILIIIFWKKLKLINTKIILYGSLIGLMFFGSLAFQVASLRFTTSSNSSFISALSVVIVPLVSAGYYKKKIDFSCVLGVLFAVVGLFFISGGVNFKLNIGDLFSFLCAICITFQIIFIDIFCSKCDSALLSLIQVVFCAIFYNIVLFIIGTKPIVFNTQLTVSIFITGILGTAVAYTGIVFLEKFTSPTHTALIFCAEPVFATIFAMFIPNNNGSCESITINTFIGCGVILLSMVISELKIGNNIPQKIIKL”, for which the protein production result is on record as “failed”.

For the sequence “MTEIQRLLSETIDDLNIREKRDNRPRFSISFIRKHPGLFIAMYAAWFATLAVMLQSETLVGSVWLLVVLFIAFNGFFFFDIAPRYHYNDIDVLDLRVCYNGEWYNTRFVPPTLIETILQSPQVDNEHKVQLQKMVARKGELSFYDIFTLARAEASR”, the protein production entry is reported as “failed”.

Consider “MLIEILEFASILALVAVLTLTVMLQDIFFIDINKQYTETRIGTIIFSIRMLFGAWVIFVTETTIIAISKVTAIQLIILLLIWVCSKYVQKTRENWLITIVAFVIYGVGTYIYIQFAFKGY”, for which the protein production result was “failed”.

“MSLDSPLYGRSFADDKMRELFSAQSFISRCVETEVALARAQARLGIIPEDAAAGITAAARTFAPEMERLRDDTEIVGYPILPLVEQLSAHAGEAGKYLHWGATTQDIMDTATVLQIRDGLALISRRIESVRKALAALARNHRDTPMAGRTHLQHALPVTFGYKAAVWLSAFDRHAARLEEISPRVLVVEFSGASGTLASLGTRGLDVQRELARELNLGVPSITWHSARDAVAETVQFLALVSGSLGKLAMDISIMMTTELGEVAEPFVRHRGASSTMPQKQNPVSCELILAGARIVRNHATSMLDAMIHDFERATGPWHLEWSAVPEGFAVASGILYQAEFMLGGLQVFPDRMRENLDHSRGLIVAEAVMMALAPHTGRKEAHDIVYLGCRRAVEDKTGLFEVLRTMPEVAKPLGEEALRDLTDPRNYLGSAGAMVDNVLGGREGHHHHHH”: the protein production result is recorded as “not failed”.

Take “VRVLSYDKEKLNWLYKDPQGLVQGPFSLTQLKAWSDAEYFTKQFRVWMTGESMESAVLLTDVLRL”: the protein production entry is given as “not failed”.

As for “MQFIKNLQLNKKKDSDSSEQVLTNKKNKMKYEDFNFIRTLGTGSFGRVILATYKNGNYPPVAIKRFEKCKIIRQKQVDHVFSERKILNYINHPFCVNLHGSFKDDSYLYLVLEFVIGGEFFTFLRRNKRFPNDVGCFYAAQIVLIFEYLQSLNIVYRDLKPENLLLDKDGFIKMTDFGFAKIVETRTYTLCGTPEYIAPEILLNVGHGKAADWWTLGIFIYEILVGCPPFYANEPLLIYQKILEGIIYFPKFLDNNCKHLMKKLLSHDLTKRYGNLKKGAQNVKEHPWFSNIDWVNLLNKNVEVPYKPKYKNIFDSSNFERVQEDLTIADKITNENDPFYDW”, the protein production entry is recorded as “failed”.

On to “MAPNASCLCVHVRSEEWDLMTFDANPYDSVKKIKEHVRSKTKVPVQDQVLLLGSKILKPRRSLSSYGTDKEKTIHLTLKVVKPSDEELPLFLVESGDEAKRHLLQVRRSSSVAQVKAMIETKTGIIPETQIVTCNGKRLEDGKMMADYGIRKGNLLFLASYCIGG”, for which the protein production entry is reported as “failed”.

With “MLLHLSTWQEVEAYLQQSKGIIFPIGSTEQHGPTGLIGTDAICAEAIAAGVGDATGAIVGPTINVGMALHHTAFPGTISLRPSTLIQVVRDYVTCLAKAGFSKFYFINGHGGNIATLKAAFSETYAHLEDLQIANAQQVQCQVANWFMCGSVYKLAKELYGDQEGSHATPSEVALTQYVYPEAIKQAPLSPEVASGHRIYSAADFRVRYPDGRMGSNPGLATPEHGKQFYDLAVKELSNGYLEFVNAD”, the protein production entry is given as “not failed”.

In the case of “MLICNDKSNPKTLLEEIMALRPWRKGPFEISQIKIDSEWDSSIKWDLVKNATPLKDKVVADVGCNNGYYLFKMLEHGPKSLVGFDPGVLVKKQFEFLAPFFDKEKKIIYESLGVEDLHEKYPNAFDVIFCLGVLYHRKSPLEALKALYHALKIKGELVLDTLIIDSPLDIALCPKKTYAKMKNVYFIPSVSALKGWCERVGFENFEILSVLKTTPKEQRKTDFILGQSLEDFLDKTDPSKTLEGYDAPLRGYFKMLK”, the protein production entry was “failed”.

Regarding “MEEKRLVIVGTAHVSKRSVEEVAEVIEREKPDAVAVELCPRRYHALVHGQREEISVADVIRKGNVFMLLFQLILAYFQRKVGEETGVKPGSEMLAAIEKAREAGADVLLIDRDIGLTFTRFWQKLTFVEKIKLIFHLVRSTFSGDEIEVDEMLEEDVLDMLVKEFRKISPNAAKVLIDERDVYMAANLLNALSRYNRIVAVVGAGHRKGIEEALLKLKENPV”, the protein production result is given as “failed”.

“EKITILADAIPELHVEEANDKVMGSIDWEAALKQSAGKEDLAQEMLQMLVDFIPEVNEWIDKALESDISEEELCHYIHKLHGSSSYCGVPRLKQLCNLIETSLRQHQTISDIEPELFELQDEMEKVTKDANLLLSN”: the protein production result was “not failed”.

Take “MGSLYTSELSRAVSESVAAALQRSFQGELRSASALGSGWSTSAELLNRNDSTERYFVKLSEPQAVSMFSAEFEGIQAMAESETVRVPAPICYGNTAERSFIVLEYLELGGIGNEAVYRDFGEKLAAMHRCSSGGRGYGWHRGNTIGSTPQLNTWMHSWADFFVENRLRYQLKLARSRQGGRLRNEDALLQRVHSVLQEHEIQHQVTPSLVHGDLWTGNVATLRNQNEVVIFDPATYYGDREVDLAMTELFGRLPRAFYQAYDASWPLPKGYREKRRVIYNLYHILNHGALFGGGYYDQAQSMIETILR”: the protein production result is given as “not failed”.

In the case of “MTKKQKEILFCDYFEEWVEVYKVGAIAKITLAKYYNAAKQLRDLCPKLFISDFDRREYQRIINVYAETHEKQTVKDFHHHVKACIKDLFHDGLIDKDPTYRVVIKGAEPTRAKKRKFLQKEELSKLLQSLDMSQIGFGWFVMLVAKTGMRYAEALAITPADFDWTAQTISINKTWDYKYNKGFAKTKTLSSVRTIKIDWQIVGQFKPLIKDFPEDEPIFVEKFGDGTYKRQFNSTINNFLAVKCNETGITQISFHALRHTHASVLLAEGVSIHTISARLGHADVGVTQETYAHVLDELQKKDDQKMLSVLMQIA”, the protein production entry was “failed”.

For “MLSLAYGMVALIGYSVSFDKTTFRLLRGESNLFYTLAKWENNKLHVELPENIDKQSPTMTLIYDENGQLLWAQRDVPWLMKMIQPDWLKSNGFHEIEADVNDTSLLLSGDHSIQQQLQEVREDDDDAEMTHSVAVNVYPATSRMPKLTIVVVDTIPVELKSSYMVWSWFIYVLSANLLLVIPLLWVAAWWSLRPIEALAKEVRELEEHNRELLNPATTRELTSLVRNLNRLLKSERERYDKYRTTLTDLTHSLKTPLAVLQSTLRSLRSEKMSVSDAEPVMLEQISRISQQIGYYLHRASMHGGTLLSRELHPVAPLLDNLTSALNKVYQRKGVNISLDISPEISFVGEQNDFVEVMGNVLDNACKYCLEFVEISARQTDEHLYIVVEDDGPGIPLSKREVIFDRGQRVDTLRPGQGVGLAVAREITKQYEGKIVAGESMLGGARMEVIFGRQHSTPKDE”, the protein production entry was “failed”.

Turning to “RLEDLGAASAARLLDAAEERLGRPCGRMERYGRVEREVVAAAEGAELLIVARDGDRARLGPHSLGPASRFVVDHAPCPVLLVWPAPAPGLGTIPPPPHP”, the protein production result is listed as “not failed”.

Consider “PECDWWALGVFAYEMFYGQTPFYADSTAETYGKIVHYKEHLSLPLVDEGVPEEARDFIQRLLCPPETRLGRGGAGDFRTHPFFFGLDWDGLRDSVPPFTPDFEGATDTCNFDLVEDGLTAMVSGGGETLSDIREGAPLGVHLPFVGYSYSCMALRDSEVPGPTPMEVEAEQLLEPHVQAPSLEPSVSPQDET”, for which the protein production entry is given as “failed”.

For the sequence “MQPIDRAQAQQRANDILVFQRELQRLDQEQAFRLEPAQARQLADYHLALLDSYRDRFDIDHDLRSQQLSLGMRVASFFGALAFAASVFLLFYRFWGLFPTVAQVAILIGSAFAAFFATLWVQAKDASGYFSKLAAMVAFACFVLDLTMLGQIFNVTPSDLALVPWALYALLLAYLCNARLLLAAAILCVMGFIAARVGTWGGGYWLSVGERPENFFPAAALIFAVPLCFDQRNFSGFAVIYRVFALLGLFLPMLVLANWGSGSYLALPSALIEGLYQVAGFVAAALVIWLGARRNWADVSNTGITFFVIFLYTKFFDWWWEAMPKYLFFLVLGLSALLILLVLRRLRTPLGIAARTDA”, the protein production result is reported as “failed”.

As to “MSLSRSEEMHRLTENVYKTIMEQFNPSLRNFIAMGKNYEKALAGVTYAAKGYFDALVKMGELASESQGSKELGDVLFQMAEVHRQIQNQLEEMLKSFHNELLTQLEQKVELDSRYLSAALKKYQTEQRSKGDALDKCQAELKKLRKKSQGSKNPQKYSDKELQYIDAISNKQGELENYVSDGYKTALTEERRRFCFLVEKQCAVAKNSAAYHSKGKELLAQKLPLWQQA”, the protein production result is “not failed”.

Take “MRGLSSLLLMIVLALLLYPLPHGVILIGIMTLSLLSHTLGIISLGILALYLIVFRITNIVGVAIMALGLLVVEIREMEKIRAPMEHFLYLIVAVGLSLLTYFGVYAISLAGVSLDVTLLAVLFLLLLYAFIRISVLSP”: the protein production result is on record as “failed”.

Turning to “MLVAAACFTIMNVLIKEASAKFALGSGELVFWRMLFSTVALGAAAVLRRDTFRTPHWKNHLNRSMVGTGAMLLLFYAVTHLPLATGVTLSYTSSIFLAVFSFLILKERISVYTQAVLLLGFAGVVLLLNPSFRSGQETAALAGLAGGAMSGWAYLKVRELSLAGEPGWRVVFYLSVTGVAMSSVWATLTGWHTLSFPSAVYLSCIGVSALIAQLSMTRAYKVGDKFTVASLSYMTVVFSALSAAFFLGEELFWQEILGMCIIILSGILSSIRPTAFKQRLQSLFRQR”, the protein production result is listed as “failed”.
